Measurements taken from PMC7438487, “Structural studies reveal flexible roof of active site responsible for ω-transaminase CrmG overcoming by-product inhibition” (Communications Biology, 2020).

Legend:
purified protein = substrate: C[C@H](N)C(=O)O; assay: purified protein; conditions: 0.2 mM CRM M, 80 μM PLP, 4 μM CrmG, 200 mM Tris pH 7.5, 30 °C, covalent PLP-Ala external aldimine in crystal
[1] = substrate: NC(=O)CC[C@H](N)C(=O)O; assay: transamination kinetics with CRM M as acceptor; crystal structure; type: biochemical, Actinoalloteichus sp. WH1-2216-6; conditions: 0.2 mM CRM M, 80 μM PLP, 4 μM CrmG, 200 mM Tris pH 7.5, 30 °C, no external aldimine in crystal
[2] = substrate: N[C@@H](CCC(=O)O)C(=O)O; assay: transamination kinetics with CRM M as acceptor; crystal structure of external aldimine; type: biochemical, Actinoalloteichus sp. WH1-2216-6; conditions: 0.2 mM CRM M, 80 μM PLP, 4 μM CrmG, 200 mM Tris pH 7.5, 30 °C, covalent PLP-Glu external aldimine in crystal

B1: CrmG (Actinoalloteichus sp. WH1-2216-6) (protein)
chain: MTHPSGEPVYADAVLNGWLTSMGLGVEYVRAEGNTVYYLDDEGREVPVLDHACGFGSLIFGHNHPEIIAHAKAALDAGTVVHAQLSRQPRANQISRILNDIMRRETGRDDRYNAIFANSGAEANEICMKHAELERQERITALFAEIDAELDTAREALTTGTATLDTASLPLVGGGAGDVDGVIADIHRHNDERRAERPLFLTLDGSFHGKLVGSIQLTQNEPWRTPFTALSSPARFLPADEPELIGKIVEDERRSVLTLSLDKDTVRVVERDFPVVAAIFVEPVRGGSGMKTVTPELAEELHRLRDTLGCPLVVDEVQTGIGRTGAFFGSALLGIRGDYYTLAKAIGGGIVKNSVALIRQDRFLPAMEVIHSSTFAKDGLSASIALKVLEMVEADGGRVYQRVRERGQRLEAMLESVRADHSDVVSAVWGTGLMLALELRDQSNATSQAIREKAAHGFLGYVLAGFLLREHHIRVLPAGPRSGFLRFSPSLYITDEEIDRTETALRSLFTALRDQDGDRLVLS
notes: pET28a, N-terminal His-tag and 14 additional vector residues; expressed in E. coli BL21; dimer (114 kDa by DLS)
Km (purified protein): 405.10 µM | Km [1]: 182.70 µM | Km [2]: 80.02 µM
